Article PMC4219604, “C-terminal in Sp1-like artificial zinc-finger proteins plays crucial roles in determining their DNA binding affinity”

Biological target: 7ZFP Active-A (artificial (Sp1-derived zinc fingers))
Assay: EMSA; EMSA: 25 mM HEPES, 100 mM KCl, 1 mM EDTA, 10 mM MgCl2, 0.1% NP40, 1% glycerol, 1 mM DTT; 30 min on ice; pH not stated
Conditions: protein: recombinant; tags: C-terminal 6xHis; label: biotin; blunt

7ZFP Active-A (artificial (Sp1-derived zinc fingers)), sequence (chain, as listed by the source): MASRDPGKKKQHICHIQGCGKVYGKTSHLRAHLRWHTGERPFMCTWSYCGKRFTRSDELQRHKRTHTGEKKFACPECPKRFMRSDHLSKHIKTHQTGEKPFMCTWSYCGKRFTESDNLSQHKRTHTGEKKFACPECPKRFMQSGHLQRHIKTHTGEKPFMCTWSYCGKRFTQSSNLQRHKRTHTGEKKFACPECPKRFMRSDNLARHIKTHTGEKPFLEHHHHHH

B1: Probe-1 (p16 promoter) (dsDNA)
DNA 1: AAGGTTGTATCGCGGAGGAAGGAAACGGGGCGGGGGCGGATTTCT
DNA 2: AGAAATCCGCCCCCGCCCCGTTTCCTTCCTCCGCGATACAACCTT
  binding result: binds
